From article PMC6638009 (Molecular Plant Pathology, 2018)

Legend:
His-tagged PthXo1 = His-tagged PthXo1 (Xanthomonas oryzae pv. oryzae, UniProt B2SU53 1-1373); experiment: MST; […]; 50 mM Tris-HCl pH 7.8, 150 mM NaCl, 10 mM MgCl2, 0.05% Tween-20; 25°C; […]; details: both partners purified
His-tagged AvrXa27 = His-tagged AvrXa27 (Xanthomonas oryzae pv. oryzae, UniProt A0A0K0GNW2 1-1136); experiment: as above; details: both partners purified

B1: His-tagged Xa5 (OsTFIIAγ5), labelled with NT-647 (natural protein, rice (Oryza sativa), UniProt A2XZI2 1-106, looked up)
chain: MATFELYRRSTIGMCLTETLDEMVSSGTLSPELAIQVLVQFDKSMTEALENQVKSKVSIKGHLHTYRFCDNVWTFILTEASFKNEETTEQVGKVKIVACDSKLLSQ
modifications: amine-reactive red fluorescent dye NT-647
Kd (His-tagged PthXo1): < 1000 nM | Kd (His-tagged AvrXa27): < 1000 nM
